According to patent US11649275B2, “Dual agonist fusion proteins” (Duke University, priority 2018, dated 2023):

Tests used:
db/db mice [1] = assay: Short-term co-treatment pilot study, 48 h after single s.c. injection; type: in vivo; settings: 48 h post-injection, 1000 nmol/kg s.c.
Protocol: (§1) Animals: In vivo studies were conducted in accordance with the AAALAC-accredited Duke Institutional Animal Care and Use Committee. 5-week-old B6.BKS(D)-Lepr^db/J (“db/db”) male mice were purchased from Jackson Laboratory (Bar Harbor, Me.) and maintained on a 12 h/12 h light/dark cycle with ad libitum access to food (LabDiet 5053) and water. Animals were group-housed and allowed 1-week acclimation before stratification into control and treatment groups based on baseline ambient blood glucose levels and body weights.
(§2) ELP fusion treatments: ELP fusion proteins were administered at 150-200 μM concentration via injection into the subcutaneous (s.c.) space on the hind flank. Animals received either a single s.c. injection for short-term studies or weekly s.c. injections for chronic studies. The “1:1 mixture” treatment group received a single injection containing an equimolar mixture of GLP1-ELP and ELP-FGF21, with the indicated dose referring to the dose of each respective fusion in the mixture. Vehicle control refers to PBS.
Ambient blood glucose measurements: Blood glucose levels were measured from a tail vein puncture with an AlphaTRAK 2 Blood Glucose Meter (Zoetis, Parsippany-Troy Hills, N.J.) every 24 h, 1-2 h following onset of the light cycle. […] Areas under the curve (AUCs) were calculated with GraphPad Prism 8 software using the trapezoidal rule and setting a Y=0 baseline. […]

[2] = Pharmacokinetic study of radiolabeled ELP fusion depots after s.c. injection; type: in vivo, mice; settings: component of 1:1 mixed depot, 1000 nmol/kg each
Protocol: Pharmacokinetic studies: Tyrosine residues on GLP1-ELP, ELP-FGF21, or GLP1-ELP-FGF21 fusion proteins were reacted with Na^125I radionuclide (Perkin Elmer) using Pierce Pre-Coated Iodination Tubes (Thermo Fisher Scientific) and the indirect method for iodination. Radiolabeled protein was purified from unreacted radionuclide with Zeba Spin Desalting Columns (Thermo Fisher Scientific). Activities of radiolabeled constructs were measured with an Atomlab 400 Dose Calibrator (Biodex, Shirley, N.Y.) and correlated to protein concentration. Mice received a single s.c. injection of radiolabeled fusion, and 10 μL blood samples were collected at frequent time points from the tail vein and stored at room temperature until radioactivity quantification. Sample counts were measured at the end of the study on a Wallac Wizard 1480 Automatic Gamma Counter (Perkin Elmer). An activity vs. count standard curve was used to convert sample counts to activities, and subsequently to moles of drug.
Pharmacokinetic analysis: The maximum serum concentration (Cmax) was recorded as observed, as well as time to reach Cmax (tmax). […] Absorption half-life (t1/2, abs) was estimated from the slope of the linear regression curve. When a drug administered at an extravascular site yields a terminal half-life greater than that resulting from an i.v. bolus, the terminal half-life reflects the absorption half-life.

db/db mice [3] = assay: Chronic dosing study, weekly s.c. for four weeks (GTT, % HbA1c, body weight, food intake); type: in vivo
Protocol: as §1, §2
Food Intake: For food intake studies, animals were group-housed 4 per cage, and food pellets were weighed every 1-2 days. Total cage food intake was calculated for each time increment, averaged per animal, and summed over the course of the study to yield a cumulative food intake per mouse. N=8 treatment groups were divided into 2 cages, allowing for an n=2 food intake standard error calculation.

[4] = molecular target: T1, murine β-Klotho and FGF receptor 1 (Mus musculus, UniProt P16092+Q99N32); assay: ERK phosphorylation assay (FGF21 receptor agonism, HEK293 cells); type: cell-based; settings: compared to native FGF21
T1 construct: expressed in transfected cells; host or cells: HEK293
T1 sequence (Q99N32 whole entry): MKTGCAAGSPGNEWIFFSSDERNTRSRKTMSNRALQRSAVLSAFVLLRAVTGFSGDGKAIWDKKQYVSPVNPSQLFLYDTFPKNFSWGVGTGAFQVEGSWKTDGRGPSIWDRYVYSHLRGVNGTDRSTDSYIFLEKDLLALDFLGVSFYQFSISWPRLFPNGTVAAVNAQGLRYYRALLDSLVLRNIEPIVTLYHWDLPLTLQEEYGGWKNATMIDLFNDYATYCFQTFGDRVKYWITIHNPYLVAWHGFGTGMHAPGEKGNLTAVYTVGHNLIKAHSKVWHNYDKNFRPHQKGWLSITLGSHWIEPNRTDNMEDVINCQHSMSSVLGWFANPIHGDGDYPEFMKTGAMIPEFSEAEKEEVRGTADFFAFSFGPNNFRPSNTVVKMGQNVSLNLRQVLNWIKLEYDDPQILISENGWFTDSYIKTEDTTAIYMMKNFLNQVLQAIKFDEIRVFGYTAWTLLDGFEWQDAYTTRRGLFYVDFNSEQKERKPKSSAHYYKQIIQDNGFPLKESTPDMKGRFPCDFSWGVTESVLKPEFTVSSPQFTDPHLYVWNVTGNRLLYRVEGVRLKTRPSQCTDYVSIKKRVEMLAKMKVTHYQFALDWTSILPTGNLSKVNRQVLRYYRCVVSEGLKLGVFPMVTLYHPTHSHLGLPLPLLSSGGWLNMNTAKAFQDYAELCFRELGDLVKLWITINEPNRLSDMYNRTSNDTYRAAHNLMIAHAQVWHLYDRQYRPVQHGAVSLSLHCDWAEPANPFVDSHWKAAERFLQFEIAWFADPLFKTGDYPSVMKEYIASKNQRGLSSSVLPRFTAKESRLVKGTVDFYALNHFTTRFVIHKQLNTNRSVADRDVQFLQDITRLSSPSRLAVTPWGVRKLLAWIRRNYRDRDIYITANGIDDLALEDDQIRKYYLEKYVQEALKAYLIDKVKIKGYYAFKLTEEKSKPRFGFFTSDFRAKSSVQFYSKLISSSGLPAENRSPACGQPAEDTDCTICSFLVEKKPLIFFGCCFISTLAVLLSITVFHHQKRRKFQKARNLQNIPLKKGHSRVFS
T1 sequence (P16092 22-822): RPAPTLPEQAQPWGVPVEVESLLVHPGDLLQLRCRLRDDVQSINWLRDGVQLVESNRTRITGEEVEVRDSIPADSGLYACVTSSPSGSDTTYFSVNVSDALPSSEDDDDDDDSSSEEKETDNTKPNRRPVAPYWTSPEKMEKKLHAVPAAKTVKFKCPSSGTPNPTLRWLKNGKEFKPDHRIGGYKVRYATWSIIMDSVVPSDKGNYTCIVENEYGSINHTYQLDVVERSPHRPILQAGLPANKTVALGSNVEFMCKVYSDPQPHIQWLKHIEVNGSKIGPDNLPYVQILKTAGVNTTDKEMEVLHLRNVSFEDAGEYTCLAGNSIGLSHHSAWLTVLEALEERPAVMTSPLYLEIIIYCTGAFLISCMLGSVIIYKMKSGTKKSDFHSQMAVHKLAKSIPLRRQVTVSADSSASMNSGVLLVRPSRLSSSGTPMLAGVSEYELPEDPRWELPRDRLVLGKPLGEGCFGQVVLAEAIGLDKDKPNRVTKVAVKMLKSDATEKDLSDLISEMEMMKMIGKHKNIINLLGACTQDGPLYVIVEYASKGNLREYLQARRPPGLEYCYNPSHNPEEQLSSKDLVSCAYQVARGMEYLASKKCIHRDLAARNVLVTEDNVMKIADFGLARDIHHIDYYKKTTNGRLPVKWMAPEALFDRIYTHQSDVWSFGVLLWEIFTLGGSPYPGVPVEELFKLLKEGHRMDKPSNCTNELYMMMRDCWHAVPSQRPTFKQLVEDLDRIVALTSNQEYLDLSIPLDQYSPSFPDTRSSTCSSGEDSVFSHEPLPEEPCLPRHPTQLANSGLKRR
Protocol: ERK phosphorylation assay: For quantitative evaluation of FGF21 in vitro activity, a HEK293 cell line was previously generated that stably expresses murine β-Klotho and FGF receptor 1 and thereby enables FGF21-mediated ERK1/2 phosphorylation. Cells were seeded at 5×10^4 cells/cm^2 and adhered overnight. After serum starvation for 6 h, cells were treated with serial dilutions of FGF21-containing fusion proteins or native mouse FGF21 (ProSpec-Tany, East Brunswick, N.J.) for 5 min. Cells were lysed and assessed for phospho-ERK1/2 and total ERK1/2 content using the AlphaLISA Surefire Ultra Assay Kits (PerkinElmer) and the EnSpire Alpha Plate Reader (PerkinElmer). Phospho-ERK1/2 was normalized to total ERK1/2 and fit to a three-parameter dose-response curve to determine EC50s using GraphPad Prism 8 software (La Jolla, Calif.).

B1: ELP-FGF21: Single agonist control: ELP (120 repeats, 4:1 Val:Ala) fused to mutated murine FGF21; SEQ ID NO:14 (protein)
chain: GVGVPGVGVPGAGVPGVGVPGVGVPGVGVPGVGVPGAGVPGVGVPGVGVPGVGVPGVGVPGAGVPGVGVPGVGVPGVGVPGVGVPGAGVPGVGVPGVGVPGVGVPGVGVPGAGVPGVGVPGVGVPGVGVPGVGVPGAGVPGVGVPGVGVPGVGVPGVGVPGAGVPGVGVPGVGVPGVGVPGVGVPGAGVPGVGVPGVGVPGVGVPGVGVPGAGVPGVGVPGVGVPGVGVPGVGVPGAGVPGVGVPGVGVPGVGVPGVGVPGAGVPGVGVPGVGVPGVGVPGVGVPGAGVPGVGVPGVGVPGVGVPGVGVPGAGVPGVGVPGVGVPGVGVPGVGVPGAGVPGVGVPGVGVPGVGVPGVGVPGAGVPGVGVPGVGVPGVGVPGVGVPGAGVPGVGVPGVGVPGVGVPGVGVPGAGVPGVGVPGVGVPGVGVPGVGVPGAGVPGVGVPGVGVPGVGVPGVGVPGAGVPGVGVPGVGVPGVGVPGVGVPGAGVPGVGVPGVGVPGVGVPGVGVPGAGVPGVGVPGVGVPGVGVPGVGVPGAGVPGVGVPGVGVPGVGVPGVGVPGAGVPGVGVPGVGVPGVGVPGVGVPGAGVPGVGVPGVGVPGAYPIPDSSPLLQFGGQVRQRYLYTDDDQDTEAHLEIREDGTVVGAAHRSPESLLELKALKPGVIQILGVKASRFLCQQPDGALYGSPHFDPEACSFRERLLEDGYNVYQSEAHGLPLRLPQKDSPNQDATSWGPVRFLPMPGLLHEPQDQAGFLPPEPPDVGSSDPLSMVEGSQGRSPSYASG
- body weight, % change from pre-injection weight (db/db mice [1]): −0.9±0.3%
- day by which plasma levels dropped below 100 nM [2]: ≤ 4 days
- fasting blood glucose levels (db/db mice [3]; 5 h fast, 3 days after the first dosing cycle, 1000 nmol/kg s.c.): 237 ± 21 mg/dL
- % HbA1c elevation relative to control (db/db mice [3]; four-week study): significantly reduced % HbA1c elevation relative to control
- effect on body weight / weight gain compared to vehicle (db/db mice [3]; four-week treatment period): did not induce a significant effect on body weight
- GTT AUC (db/db mice [3]; i.p. glucose tolerance test 3 days after the first dosing cycle): significantly decreased GTT AUC compared to vehicle
- fasting plasma insulin (db/db mice [3]; prior to glucose challenge, 3 days after the first dosing cycle): equivalent levels of fasting plasma insulin
- increase in FGF21 receptor EC50 on fusion of FGF21 to an ELP [4]: approximately twenty-fold
